We go through two molecules from patent US20230365648A1 (published 2023).

Where a chain is given by its changes, count along the chain named. Where two headings read alike, the source gives them in different places.

The target of assay [1] is CD47 on human CD45 negative red blood cells (human, UniProt Q08722 19-323). Put plainly: FACS cell binding.
The target of assay [2] is T1, rat CD47 (rat, UniProt P97829 19-140).
T1 chain: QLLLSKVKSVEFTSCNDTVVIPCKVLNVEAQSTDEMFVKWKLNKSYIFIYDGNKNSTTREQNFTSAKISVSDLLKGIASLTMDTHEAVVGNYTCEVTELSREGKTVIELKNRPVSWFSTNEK
The experiment in a line: BLI (Octet). For orientation: In BLI a coated tip is dipped into the sample, and binding shifts an interference pattern.

In assay [3] the target is T2, rhCD47-his (human CD47) (human, UniProt Q08722 19-139). Put plainly: BLI (Octet).
In assay [4] the target is T3, Cyno monkey CD47 (Cyno monkey, UniProt A0A2K5X523 19-139).
T3 chain: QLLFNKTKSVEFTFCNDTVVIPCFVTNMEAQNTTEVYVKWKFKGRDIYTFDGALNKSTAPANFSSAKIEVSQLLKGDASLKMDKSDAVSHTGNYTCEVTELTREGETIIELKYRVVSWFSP
The experiment in a line: BLI (Octet).

The target of assay [5] is T4, mouse CD47 (mouse, UniProt Q61735 19-140).
T4 chain: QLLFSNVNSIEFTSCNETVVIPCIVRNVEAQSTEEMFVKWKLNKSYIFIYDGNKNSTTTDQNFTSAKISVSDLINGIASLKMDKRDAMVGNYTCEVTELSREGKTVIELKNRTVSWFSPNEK
Put plainly: BLI (Octet).

Assay [6] has as its target T2, rhCD47-his (human CD47). Put plainly: BLI (Octet). This is another data set of the same source.
Assay [7] addresses T3, Cyno monkey CD47. The experiment in a line: BLI (Octet).

B1: Construct 50 (SIRPα fusion polypeptide SEQ ID NO: 10 construct without the YTE mutation, i.e. with the wild type IgG4 Fc domain) (Fc fusion)
chain: EEELQIIQPDKSVLVAAGETATLRCTITSLFPVGPIQWFRGAGPGRVLIYNQRQGPFPRVTTVSDTTKRNNMDFSIRIGNITPADAGTYYCIKFRKGSPDDVEFKSGAGTELSVRAKPSAAAPPCPPCPAPEFLGGPSVFLFPPKPKDTLMISRTPEVTCVVVDVSQEDPEVQFNWYVDGVEVHNAKTKPREEQFNSTYRVVSVLTVLHQDWLNGKEYKCKVSNKGLPSSIEKTISKAKGQPREPQVYTLPPSQEEMTKNQVSLTCLVKGFYPSDIAVEWESNGQPENNYKTTPPVLDSDGSFFLYSRLTVDKSRWQEGNVFSCSVMHEALHNHYTQKSLSLSLGK
By EC50 is commonly meant the midpoint of the concentration-response curve. As a reminder, the Kd is the concentration at which binding is half-saturated. For B1, in assay [1], a half-maximal response (EC50) required 12000 pM. Also, the Kd turned out to be 1030 pM in assay [2]; 30 pM in assay [3]; 97.4 pM in assay [4]; 5120 pM in assay [5]; 30 pM in assay [6]; 97.4 pM in assay [7].

B2: Construct 67 (SIRPα fusion polypeptide of SEQ ID NO: 10, SIRPα domain of SEQ ID NO: 2 and IgG4 Fc domain with a YTE mutation) (Fc fusion)
chain: B1 chain with M151Y, S153T, T155E
B2 displayed an EC50 in assay [1] of 5800 pM. The Kd in assay [2] came to 681 pM; in assay [3], 11.7 pM; in assay [4] it was 21.1 pM; in assay [5], 1610 pM; in assay [6], 11.7 pM; in assay [7] it was 21.1 pM.
